# Patent US20210122813A1 (Kyowa Kirin, published 2021)
# Where two headings read alike, the source gives them in different places.
# T1: human BMP10 mature dimer (manufactured by R & D Systems, Inc., Cat #2926-BP) (human, UniProt O95393 317-424)
# T1 construct: Bought product; also called human mature BMP10; mature BMP10
# T1 sequence: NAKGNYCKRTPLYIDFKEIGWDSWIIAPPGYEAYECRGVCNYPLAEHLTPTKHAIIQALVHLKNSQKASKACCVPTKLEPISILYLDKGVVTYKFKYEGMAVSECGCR
# How the values were obtained:
# [1] = target: human BMP10 mature dimer (manufactured by R & D Systems, Inc., Cat #2926-BP) (human) (UniProt O95393); assay: SPR (Biacore T100), antibody captured by anti-mouse IgG, human BMP10 mature dimer as analyte
# [2] = target: T1, human BMP10 mature dimer (manufactured …); assay: SPR (Biacore T100), antibody captured by anti-human IgG, human BMP10 mature dimer as analyte
# Description: (§1) The binding activity of the anti-BMP10 antibody was measured as follows. An anti-human IgG antibody was immobilized on a CMS sensor chip (manufactured by GE Healthcare Bio-Sciences, Inc., BR100530) using Human Antibody Capture Kit (manufactured by GE Healthcare Bio-Sciences Corporation, Cat #BR-1008-39) according to the attached protocol. To a flow cell in which the anti-human IgG antibody was immobilized, the antibody prepared at 5 μg/mL was added at a flow rate of 10 μL/min for 10 seconds.
# (§2) Subsequently, human mature BMP10 prepared at 5 concentrations by 3-fold serial dilution from the 100 ng/mL was added thereto at a flow rate of 30 μL/min, and a binding reaction was monitored for 1 minute and a dissociation reaction was monitored for 10 minutes. The obtained sensorgram was analyzed using Bia Evaluation Software (manufactured by GE Healthcare Bio-Sciences Corporation), and the kinetic constant of each antibody was calculated. The calculated association rate constant (ka), dissociation rate constant (kd), and dissociation constant [kd/ka=KD] of each antibody are shown in Table 4.
# [3] = target: T1, human BMP10 mature dimer (manufactured …); assay: SPR (Biacore T100), antibody captured by anti-human IgG, human BMP10 mature dimer as analyte; 100 ng/mL top concentration, 10 minutes dissociation (Example 13, Table 4)
# Description: as §1, §2
# [4] = target: T1, human BMP10 mature dimer (manufactured …); assay: SPR (Biacore T100), antibody captured by anti-human IgG, human BMP10 mature dimer as analyte; remark: listed apart in the source
# Description: Further, subsequently, human mature BMP10 prepared at 5 concentrations by 3-fold serial dilution from 300 ng/mL was added thereto at a flow rate of 30 μL/min, and a binding reaction was monitored for 1 minute and a dissociation reaction was monitored for 30 minutes. The obtained sensorgram was analyzed using Bia Evaluation Software (manufactured by GE Healthcare Bio-Sciences Corporation), and the kinetic constant of each antibody was calculated.
Kd [2] [pM],Kd [4] [pM],Molecule,also measured
–,–,"MAB2926 (clone No. 462732, R & D Systems, Inc.) (antibody)",Kd [1]: 33.1 pM
2.62,2.62,"18C1 chimeric antibody (antibody, V domains shown, also called ch18C1 antibody; ch18C1) VH: QVQLKETGPDLVQLTQTLSITCTVSGFSLTTYNVHWVRQPPGKGLEWMGTMWNGGGIDYNSAFKSRLSISRDTSKSQVFLKMNSLQTDDTAKYFCARLGYYVDYWGHGIMVTVSS VL: QFVLIQSNSMSTSLGSTVKLSCKRSTGNIGSSYVYWYQQHEGRSPTTMIYDGDKRPDGVPDRFSGSIDSSSNSAFLTINNVQIEDEAIYFCQSFSSGIKFIFGGGTKLTVL",kon [3]: 3.88e+07 M⁻¹ s⁻¹
–,11.8,"12H3 chimeric antibody (antibody, V domains shown, also called ch12H3 antibody) VH: QVQLKETGPDLVQLTQTLSITCTVSGFSLSTYNVHWVRQPPGKGLEWMGAMWNGGGINYNSAFKSRLSISRDTSKSQVFLKMNSLQTDDTAKYFCARFGYGFDYWGQGVMVTVSS VL: ETVMTQSPTSMSTSIGERVTLNCKASQSVGINVDWYQRTPGQSPKLLIHGASNRHTGVPDRFTGSGFGRDFTLTISNVEAEDLTIYYCLQYGSIPLTFGAGTKLELI",–
–,6.26,"11H10 chimeric antibody (antibody, V domains shown, also called ch11H10 antibody) VH: QVQLKETGPDLVQLTQTLSITCTVSGFSLTTYNVHWVRQPPGKGLEWMGAMWNGGGTDYNSAFKSRLSISRDTSKSQVFLKMNSLQTDDTAKYFCARLAEGFDYWGQGVMVTVSS VL: DTVMTQSPASMSTSVGERVTVNCKASQSVGTVVAWFQQKPGQSPKRLIYLATNRHTGVPDRFTGSGFGRDFTLTISNVEAEDLAVYYCLQYGSIPFTFGSGTKLEIK",–
3.19,–,"VLres16HVmut07 (antibody, V domains shown, Humanized 18C1 antibody; also called hz18C1 antibody; anti-BMP10 humanized antibody) VH: QVQLQESGPDLVQPSQTLDITCTVSGFSLTTYNVHWVRQPPGKGLEWMGTMWNGGGIDYNSAFKDRLAISRDTSKNQVSLKMDSLQTDDTAKYFCARLGYYVDYWGQGILVTVSS VL: QFALIQSDSMSTSAGSTVKLSCKRSTGNIGSSYVYWYQQHEGRSPTTMIYDGDKRPDGVPDRFSGSIDSSSNSAFLTINDVQIEDEAVYFCQSFSSGIKFIFGGGTKLTVL",–
2.88,–,"VLres16HVmut10 (antibody, V domains shown, Humanized 18C1 antibody; also called hz18C1 antibody; anti-BMP10 humanized antibody) VH: QVQLQESGPDLVQPSQTLDITCTVSGFSLTTYNVHWVRQPPGKGLEWMGTMWNGGGIDYNSAFKDRLAISRDTSKNEVFLKMDSLQTDDTAVYFCARLGYYVDYWGQGILVTVSS VL: QFALIQSDSMSTSAGSTVKLSCKRSTGNIGSSYVYWYQQHEGRSPTTMIYDGDKRPDGVPDRFSGSIDSSSNSAFLTINDVQIEDEAVYFCQSFSSGIKFIFGGGTKLTVL",–
3.69,–,"VLres16VHres16 (antibody, V domains shown, Humanized 18C1 antibody; also called VLres16VHres16 antibody; hz18C1 antibody) VH: QVQLKETGPDLVQPTQTLDITCTVSGFSLTTYNVHWVRQPPGKGLEWMGTMWNGGGIDYNSAFKSRLAISRDTSKSEVFLKMDSLQTDDTAKYFCARLGYYVDYWGQGIMVTVSS VL: QFALIQSDSMSTSAGSTVKLSCKRSTGNIGSSYVYWYQQHEGRSPTTMIYDGDKRPDGVPDRFSGSIDSSSNSAFLTINDVQIEDEAVYFCQSFSSGIKFIFGGGTKLTVL",–
